Molecular target: CD3 subunits (CD3E, CD3G, CD3D, CD3Z) (human, UniProt P07766 23-207; P09693 23-182; P04234 22-171; P20963 22-164)
Assay: cell-based or functional assay

Chain of CD3 subunits (CD3E, CD3G, CD3D, CD3Z) (P07766 23-207, chain 1 of 4): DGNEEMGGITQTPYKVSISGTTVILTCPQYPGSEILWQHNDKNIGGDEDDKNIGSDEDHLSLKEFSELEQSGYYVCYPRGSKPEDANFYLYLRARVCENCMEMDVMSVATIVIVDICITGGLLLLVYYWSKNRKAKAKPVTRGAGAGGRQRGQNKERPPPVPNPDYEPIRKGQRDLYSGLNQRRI
Chain of CD3 subunits (CD3E, CD3G, CD3D, CD3Z) (P09693 23-182, chain 2 of 4): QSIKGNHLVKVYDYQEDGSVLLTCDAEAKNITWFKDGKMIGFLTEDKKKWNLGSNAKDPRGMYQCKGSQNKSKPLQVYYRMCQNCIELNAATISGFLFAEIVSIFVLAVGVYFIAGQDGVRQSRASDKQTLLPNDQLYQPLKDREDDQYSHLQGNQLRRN
Chain of CD3 subunits (CD3E, CD3G, CD3D, CD3Z) (P04234 22-171, chain 3 of 4): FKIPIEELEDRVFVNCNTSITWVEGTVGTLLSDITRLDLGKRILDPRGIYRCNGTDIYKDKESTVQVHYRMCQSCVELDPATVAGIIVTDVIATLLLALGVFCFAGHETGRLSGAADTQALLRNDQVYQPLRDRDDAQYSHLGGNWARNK
Chain of CD3 subunits (CD3E, CD3G, CD3D, CD3Z) (P20963 22-164, chain 4 of 4): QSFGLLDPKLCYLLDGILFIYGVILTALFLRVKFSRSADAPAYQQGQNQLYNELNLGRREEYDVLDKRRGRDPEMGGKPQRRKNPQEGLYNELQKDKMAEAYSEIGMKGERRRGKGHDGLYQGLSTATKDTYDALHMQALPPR

| Binder | CD3-recruiting activity (CD3-positive proportion, N=3), CD3-stably expressing 293T cells [%] |
| --- | --- |
| modified TCR of the combination of βCR and αCR (TCR) TCR alpha: NIQNPDPAVYQLRDSKSSDKSVCLFTDFDSQTNVSQSKDSDVYITDKTVLDMRSMDFKSNSAVAWSNKSDFACANAFNNSIIPEDTFFPSPESSCDVKLVEKSFETDTNLNFQNLSVIGFRILLLKVAGFNLLMTLRLWSS TCR beta: EDLKNVFPPEVAVFEPSEAEISHTQKATLVCLATGFYPDHVELSWWVNGKEVHSGVSTDPQPLKEQPALNDSRYCLSSRLRVSATFWQNPRNHFRCQVQFYGLSENDEWTQDRAKPVTQIVSAEAWGRADCGFTSESYQQGVLSATILYEILLGKATLYAVLVSALVLMAMVKRKDSRG | ≥ 80 |
| modified TCR of the combination of βCR and α5 (TCR) TCR alpha: LDMRSMDFKSNSAVAWSNKSDFACANAFNNSIIPEDTFFPSPESSCDVKLVEKSFETDTNLNFQNLSVIGFRILLLKVAGFNLLMTLRLWSS TCR beta: EDLKNVFPPEVAVFEPSEAEISHTQKATLVCLATGFYPDHVELSWWVNGKEVHSGVSTDPQPLKEQPALNDSRYCLSSRLRVSATFWQNPRNHFRCQVQFYGLSENDEWTQDRAKPVTQIVSAEAWGRADCGFTSESYQQGVLSATILYEILLGKATLYAVLVSALVLMAMVKRKDSRG | ≥ 80 |
| modified TCR of the combination of βCR and α8 (TCR) TCR alpha: CANAFNNSIIPEDTFFPSPESSCDVKLVEKSFETDTNLNFQNLSVIGFRILLLKVAGFNLLMTLRLWSS TCR beta: EDLKNVFPPEVAVFEPSEAEISHTQKATLVCLATGFYPDHVELSWWVNGKEVHSGVSTDPQPLKEQPALNDSRYCLSSRLRVSATFWQNPRNHFRCQVQFYGLSENDEWTQDRAKPVTQIVSAEAWGRADCGFTSESYQQGVLSATILYEILLGKATLYAVLVSALVLMAMVKRKDSRG | ≥ 80 |
| modified TCR of the combination of βCR and α10 (TCR) TCR alpha: IPEDTFFPSPESSCDVKLVEKSFETDTNLNFQNLSVIGFRILLLKVAGFNLLMTLRLWSS TCR beta: EDLKNVFPPEVAVFEPSEAEISHTQKATLVCLATGFYPDHVELSWWVNGKEVHSGVSTDPQPLKEQPALNDSRYCLSSRLRVSATFWQNPRNHFRCQVQFYGLSENDEWTQDRAKPVTQIVSAEAWGRADCGFTSESYQQGVLSATILYEILLGKATLYAVLVSALVLMAMVKRKDSRG | ≥ 80 |
| modified TCR of the combination of βCR and α1 (TCR) TCR alpha: YQLRDSKSSDKSVCLFTDFDSQTNVSQSKDSDVYITDKTVLDMRSMDFKSNSAVAWSNKSDFACANAFNNSIIPEDTFFPSPESSCDVKLVEKSFETDTNLNFQNLSVIGFRILLLKVAGFNLLMTLRLWSS TCR beta: EDLKNVFPPEVAVFEPSEAEISHTQKATLVCLATGFYPDHVELSWWVNGKEVHSGVSTDPQPLKEQPALNDSRYCLSSRLRVSATFWQNPRNHFRCQVQFYGLSENDEWTQDRAKPVTQIVSAEAWGRADCGFTSESYQQGVLSATILYEILLGKATLYAVLVSALVLMAMVKRKDSRG | ≥ 80 |
| modified TCR of the combination of βCR and α4 (TCR) TCR alpha: DVYITDKTVLDMRSMDFKSNSAVAWSNKSDFACANAFNNSIIPEDTFFPSPESSCDVKLVEKSFETDTNLNFQNLSVIGFRILLLKVAGFNLLMTLRLWSS TCR beta: EDLKNVFPPEVAVFEPSEAEISHTQKATLVCLATGFYPDHVELSWWVNGKEVHSGVSTDPQPLKEQPALNDSRYCLSSRLRVSATFWQNPRNHFRCQVQFYGLSENDEWTQDRAKPVTQIVSAEAWGRADCGFTSESYQQGVLSATILYEILLGKATLYAVLVSALVLMAMVKRKDSRG | ≥ 80 |
| modified TCR of the combination of βCR and α2 (TCR) TCR alpha: SVCLFTDFDSQTNVSQSKDSDVYITDKTVLDMRSMDFKSNSAVAWSNKSDFACANAFNNSIIPEDTFFPSPESSCDVKLVEKSFETDTNLNFQNLSVIGFRILLLKVAGFNLLMTLRLWSS TCR beta: EDLKNVFPPEVAVFEPSEAEISHTQKATLVCLATGFYPDHVELSWWVNGKEVHSGVSTDPQPLKEQPALNDSRYCLSSRLRVSATFWQNPRNHFRCQVQFYGLSENDEWTQDRAKPVTQIVSAEAWGRADCGFTSESYQQGVLSATILYEILLGKATLYAVLVSALVLMAMVKRKDSRG | ≥ 80 |
| modified TCR of the combination of βCR and α9 (TCR) TCR alpha: FNNSIIPEDTFFPSPESSCDVKLVEKSFETDTNLNFQNLSVIGFRILLLKVAGFNLLMTLRLWSS TCR beta: EDLKNVFPPEVAVFEPSEAEISHTQKATLVCLATGFYPDHVELSWWVNGKEVHSGVSTDPQPLKEQPALNDSRYCLSSRLRVSATFWQNPRNHFRCQVQFYGLSENDEWTQDRAKPVTQIVSAEAWGRADCGFTSESYQQGVLSATILYEILLGKATLYAVLVSALVLMAMVKRKDSRG | ≥ 80 |
| modified TCR consisting of β1 and αCR (TCR) TCR alpha: NIQNPDPAVYQLRDSKSSDKSVCLFTDFDSQTNVSQSKDSDVYITDKTVLDMRSMDFKSNSAVAWSNKSDFACANAFNNSIIPEDTFFPSPESSCDVKLVEKSFETDTNLNFQNLSVIGFRILLLKVAGFNLLMTLRLWSS TCR beta: SEAEISHTQKATLVCLATGFYPDHVELSWWVNGKEVHSGVSTDPQPLKEQPALNDSRYCLSSRLRVSATFWQNPRNHFRCQVQFYGLSENDEWTQDRAKPVTQIVSAEAWGRADCGFTSESYQQGVLSATILYEILLGKATLYAVLVSALVLMAMVKRKDSRG | ≥ 20 |
| modified TCR of the combination of βCR and α3 (TCR) TCR alpha: NVSQSKDSDVYITDKTVLDMRSMDFKSNSAVAWSNKSDFACANAFNNSIIPEDTFFPSPESSCDVKLVEKSFETDTNLNFQNLSVIGFRILLLKVAGFNLLMTLRLWSS TCR beta: EDLKNVFPPEVAVFEPSEAEISHTQKATLVCLATGFYPDHVELSWWVNGKEVHSGVSTDPQPLKEQPALNDSRYCLSSRLRVSATFWQNPRNHFRCQVQFYGLSENDEWTQDRAKPVTQIVSAEAWGRADCGFTSESYQQGVLSATILYEILLGKATLYAVLVSALVLMAMVKRKDSRG | ≥ 80 |
| modified TCR of the combination of βCR and α6 (TCR) TCR alpha: KSNSAVAWSNKSDFACANAFNNSIIPEDTFFPSPESSCDVKLVEKSFETDTNLNFQNLSVIGFRILLLKVAGFNLLMTLRLWSS TCR beta: EDLKNVFPPEVAVFEPSEAEISHTQKATLVCLATGFYPDHVELSWWVNGKEVHSGVSTDPQPLKEQPALNDSRYCLSSRLRVSATFWQNPRNHFRCQVQFYGLSENDEWTQDRAKPVTQIVSAEAWGRADCGFTSESYQQGVLSATILYEILLGKATLYAVLVSALVLMAMVKRKDSRG | ≥ 80 |
| modified TCR of the combination of βCR and α7 (TCR) TCR alpha: SNKSDFACANAFNNSIIPEDTFFPSPESSCDVKLVEKSFETDTNLNFQNLSVIGFRILLLKVAGFNLLMTLRLWSS TCR beta: EDLKNVFPPEVAVFEPSEAEISHTQKATLVCLATGFYPDHVELSWWVNGKEVHSGVSTDPQPLKEQPALNDSRYCLSSRLRVSATFWQNPRNHFRCQVQFYGLSENDEWTQDRAKPVTQIVSAEAWGRADCGFTSESYQQGVLSATILYEILLGKATLYAVLVSALVLMAMVKRKDSRG | ≥ 80 |
